Source: paper PMC4366279 (PLoS ONE, 2015)

B1: T. brucei RNA Editing Ligase 1 (TbREL1), full length wild type [modified: [35S]-methionine labelled; [35S]-methionine labelled] [Trypanosoma brucei] / KREPA2 [modified: [35S]-methionine labelled; [35S]-methionine labelled] [Trypanosoma … (parent complex)
chain 1: YMPLPNDQSDFSPYIEIDLPSESRIQSLHKSGLAAQEWVACEKVHGTNFGIYLINQGDHEVVRFAKRSGIMDPNENFFGYHILIDEFTAQIRILNDLLKQKYGLSRVGRLVLNGELFGAKYKHPLVPKSEKWCTLPNGKKFPIAGVQIQREPFPQYSPELHFFAFDIKYSVSGAEEDFVLLGYDEFVEFSSKVPNLLYARALVRGTLDECLAFDVENFMTPLPALLGLGNYPLEGNLAEGVVIRHVRRGDPAVEKHNVSTIIKLRCSSFMELKHPGKQKELKETFIDTVRSGALRRVRGNVTVISDSMLPQVEAAANDLLLNNVSDGRLSNVLSKIGREPLLSGEVSQVDVVLMLAKDALKDFLKEVDSLVLNTTLAFRKLLITNVYFESKRLVEQKWKELMQEEAAAQSEAIPPLSPAAPTKGE
chain 2: MYRRFFRSAAVKHLGTTSAQCLMRATKYPCGAMCRNASSCHPQTLGYQQRFQSTTDKKFHCSVCKKPFRLEMAAKLHLQQAHGGDGSVEAGPGPGVEASSVNVVSTPVPSPISPVERTFVDEEERRPRRMRPTPKPLHQPDRDIPAAAMEEMLGVWDKIGLNRLEGNFVHSTMVMKVFAAPPDVSEIPLYEHVAPEGENPFDSLDHMTTGTVDATYVGHDAFAEVDLVDPFVAAPDQTLNPFRAGKVRNPFTRISPTQREVVKPLQPPQPKEEPLKAPVTPFGQLPMFGQTREPSASFAAAAVSVQAAANPNEVSSPFAAAVSSSPFVGQVASPFAPAQDVAGSPFEASPCAASSPFVTAGGQETSPFAAPSTPASFGQGSLFPPMGTGAPGFTAITETEQRQQELEHGCPTCGKKFSTFEGAAMHSKSKHGIVLESKKVKDRLNRKGVPDLPAYVPSPVDLSSTSPFGTRSAIGASWAETELIPHAQCVSNITIVGRVLDVSQASENVSHVTVFVEGERSGEEETLTLCCFGEVSQKIRGTLKRNATIFASGTLRLHPVYEASNNKYYVSPVVHVSMPTGTLAVIT

Variants of: B1
Test: co-precipitation (pull-down) with His-tag isolation beads, [35S]-methionine labeled proteins; parent: 100; read off a plot

Question: Which percent of parent does the source give for chain 1 E75A here?
Answer: Its percent of parent is ~74 % of WT.

Question: With chain 1 W398A as the variant, how does the percent of parent read?
Answer: The percent of parent was ~66 % of WT.

Question: Which percent of parent does the source give for chain 1 E411A here?
Answer: The percent of parent was ~94 % of WT.

Question: For chain 1 K122A, which percent of parent is on record?
Answer: Its percent of parent is ~100 % of WT.

Question: chain 1 K391A was tested. Which percent of parent did it give?
Answer: The percent of parent was ~88 % of WT.

Question: How did the percent of parent turn out when chain 1 E366A was run?
Answer: Its percent of parent is ~72 % of WT.

Question: Which percent of parent does the source give for chain 1 K361A here?
Answer: The percent of parent was ~67 % of WT.

Question: How did the percent of parent turn out when chain 1 Y231A was run?
Answer: Its percent of parent is ~75 % of WT.

Question: With chain 1 T220A as the variant, how does the percent of parent read?
Answer: The percent of parent was ~84 % of WT.

Question: How did the percent of parent turn out when chain 1 H161A was run?
Answer: Its percent of parent is ~94 % of WT.

Question: chain 1 S170A was tested. Which percent of parent did it give?
Answer: Its percent of parent is ~66 % of WT.

Question: For chain 1 K335A, which percent of parent is on record?
Answer: Its percent of parent is ~57 % of WT.

Question: For chain 1 S259A, which percent of parent is on record?
Answer: The percent of parent was ~100 % of WT.

Question: With chain 1 K399A as the variant, how does the percent of parent read?
Answer: Its percent of parent is ~60 % of WT.

Question: With chain 1 K380A as the variant, how does the percent of parent read?
Answer: Its percent of parent is ~84 % of WT.

Question: Which percent of parent does the source give for chain 1 E37A here?
Answer: Its percent of parent is ~67 % of WT.

Question: Which percent of parent does the source give for chain 1 Q56A here?
Answer: The percent of parent was ~110 % of WT.
